Laboratory results published in paper PMC11672854.
One block for each binder: values may come before it.

How the values were obtained:
Assay in all cases: ELISA
[1] = target: BSA, P02769; conditions: chain shown with the change; plates coated with AGR2 or BSA (control); parent: 101
[2] = target: PDI (PDIA1), P07237; conditions: chain shown with the change; plates coated with AGR2 or PDI (PDIA1); parent: 40
[3] = target: T1, Thioredoxin (TXN), P10599; conditions: chain shown with the change; plates coated with AGR2 or thioredoxin (TXN); parent: 30
T1 chain: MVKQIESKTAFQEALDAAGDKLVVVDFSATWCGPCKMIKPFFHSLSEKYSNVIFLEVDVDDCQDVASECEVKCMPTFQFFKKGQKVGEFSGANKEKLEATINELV

[4] = target: anti-AGR2 monoclonal antibody MAb-15 (VH-VL of scFv-15 in a full human IgG1 backbone); conditions: chain shown with the change; point at 1000 pM mAb-15 (highest concentration); plate coated with the AGR2 mutant; parent: est. 2.8; read off a plot

Sequence of PDI (PDIA1), P07237 (P07237 18-508): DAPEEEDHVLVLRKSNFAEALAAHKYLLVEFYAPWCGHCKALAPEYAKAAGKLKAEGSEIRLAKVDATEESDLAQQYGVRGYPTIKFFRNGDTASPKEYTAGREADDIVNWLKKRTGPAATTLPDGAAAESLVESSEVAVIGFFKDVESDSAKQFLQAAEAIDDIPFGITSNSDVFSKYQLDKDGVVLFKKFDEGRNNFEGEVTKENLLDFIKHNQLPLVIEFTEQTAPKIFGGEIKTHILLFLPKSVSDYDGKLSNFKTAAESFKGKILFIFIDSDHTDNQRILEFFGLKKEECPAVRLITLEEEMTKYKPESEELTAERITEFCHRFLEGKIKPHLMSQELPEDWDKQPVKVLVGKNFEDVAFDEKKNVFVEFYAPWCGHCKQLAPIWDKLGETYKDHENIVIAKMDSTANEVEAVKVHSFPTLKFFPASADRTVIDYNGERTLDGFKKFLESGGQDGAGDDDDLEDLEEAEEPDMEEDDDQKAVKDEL
Sequence of BSA, P02769 (P02769 25-607): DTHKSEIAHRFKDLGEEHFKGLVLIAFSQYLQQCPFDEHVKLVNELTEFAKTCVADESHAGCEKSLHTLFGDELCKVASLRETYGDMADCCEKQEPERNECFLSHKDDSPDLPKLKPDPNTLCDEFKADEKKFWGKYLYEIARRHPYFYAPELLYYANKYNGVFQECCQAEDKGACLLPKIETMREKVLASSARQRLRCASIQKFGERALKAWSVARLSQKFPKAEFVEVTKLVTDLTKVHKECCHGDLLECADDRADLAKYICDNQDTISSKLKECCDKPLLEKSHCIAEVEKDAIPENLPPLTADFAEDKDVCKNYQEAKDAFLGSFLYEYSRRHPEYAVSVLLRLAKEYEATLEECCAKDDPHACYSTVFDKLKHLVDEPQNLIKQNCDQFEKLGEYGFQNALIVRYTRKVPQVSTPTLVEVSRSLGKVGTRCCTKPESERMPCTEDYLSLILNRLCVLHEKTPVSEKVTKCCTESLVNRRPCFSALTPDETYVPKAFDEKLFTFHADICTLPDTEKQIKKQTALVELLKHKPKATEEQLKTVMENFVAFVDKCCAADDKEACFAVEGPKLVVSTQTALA

B1: anti-AGR2 monoclonal antibody MAb-15 (VH-VL of scFv-15 in a full human IgG1 backbone) S31R; A53Y (protein)
chain 1: EVQLLESGGGLVQPGGSLRLSCAASGFTFSRYAMSWVRQAPGKGLEWVSGISYQGAHTTYADSVKGRFTISRDNSKNTLYLQMNSLRAEDTAVYYCAKTYKGFDYWGQGTLVTVSS
chain 2: DIQMTQSPSSLSASVGDRVTITCRASQSISSYLNWYQQKPGKAPKLLIYSASRLQSGVPSRFSGSGSGTDFTLTISSLQPEDFATYYCQQGRRMPPTFGQGTKVEIK
other: AGR2 Specificity, BSA/AGR2 (EC50 relative to AGR2 binding) [1]: 751 | other: AGR2 Specificity, PDI/AGR2 (EC50 relative to AGR2 binding) [2]: 451 | other: AGR2 Specificity, TXN/AGR2 (EC50 relative to AGR2 binding) [3]: 266

B4: Anterior Gradient-2 (AGR2/PDIA17), AGR2 (21-175), 6x-His tag removed, O95994 S84A (protein)
chain: RDTTVKPGAKKDTKDSRPKLPQTLSRGWGDQLIWTQTYEEALYKSKTSNKPLMIIHHLDECPHAQALKKVFAENKEIQKLAEQFVLLNLVYETTDKHLSPDGQYVPRIMFVDPSLTVRADITGRYSNRLYAYEPADTALLLDNMKKALKLLKTEL
response [4]: 2.7 OD450

B5: Anterior Gradient-2 (AGR2/PDIA17), AGR2 (21-175), 6x-His tag removed, O95994 C81A (protein)
chain: RDTTVKPGAKKDTKDSRPKLPQTLSRGWGDQLIWTQTYEEALYKSKTSNKPLMIIHHLDEAPHSQALKKVFAENKEIQKLAEQFVLLNLVYETTDKHLSPDGQYVPRIMFVDPSLTVRADITGRYSNRLYAYEPADTALLLDNMKKALKLLKTEL
response [4]: 2.8 OD450

Further lines, results first:

response [4]: 2.3 OD450
B2: Anterior Gradient-2 (AGR2/PDIA17), AGR2 (21-175), 6x-His tag removed, O95994 E60A (protein)
chain: RDTTVKPGAKKDTKDSRPKLPQTLSRGWGDQLIWTQTYEAALYKSKTSNKPLMIIHHLDECPHSQALKKVFAENKEIQKLAEQFVLLNLVYETTDKHLSPDGQYVPRIMFVDPSLTVRADITGRYSNRLYAYEPADTALLLDNMKKALKLLKTEL

response [4]: 2.3 OD450
B3: Anterior Gradient-2 (AGR2/PDIA17), AGR2 (21-175), 6x-His tag removed, O95994 C81A; S84A (protein)
chain: RDTTVKPGAKKDTKDSRPKLPQTLSRGWGDQLIWTQTYEEALYKSKTSNKPLMIIHHLDEAPHAQALKKVFAENKEIQKLAEQFVLLNLVYETTDKHLSPDGQYVPRIMFVDPSLTVRADITGRYSNRLYAYEPADTALLLDNMKKALKLLKTEL
